In PMC6131271:

Experiments:
[1] = target: III-23, GPC(GPP)5GPOGPSGPRGQOGVMGFOGPKGNDGAO(GPP)5GPC; experiment: ELISA; control wells coated with III-23 or BSA; VWF-A3-GST at 5 μg/ml in PBS 0.1% BSA, room temperature; anti-GST HRP, A450
[2] = target: bovine Achilles tendon collagen type I film, 100% EDC/NHS crosslinked (bovine) (UniProt P02453); experiment: ELISA; collagen films in 96-well plates, EDC/NHS crosslinked 0% to 100%, blocked with PBS 5% BSA; VWF A3-GST at 5 μg/ml in PBS 0.1% BSA, room temperature (2 h in the methods, 1 h in the legend); anti-GST HRP, TMB, A450
[3] = target: bovine Achilles tendon collagen type I, non-crosslinked film (bovine) (UniProt P02453); experiment: as above
[4] = target: bovine Achilles tendon collagen type I film, 50% EDC/NHS crosslinked (bovine) (UniProt P02453); experiment: as above
[5] = target: bovine Achilles tendon collagen type I film, 100% EDC/NHS crosslinked (bovine) (UniProt P02453); experiment: ELISA; 100% EDC/NHS crosslinked collagen films in 96-well plates, without peptide or incubated with peptide at 5 μg/ml for 30 min, then UV (365 nm) for 5 min, washed with citrate buffer pH 3 and PBS; VWF-A3-GST at 5 μg/ml in PBS 0.1% BSA, room temperature; anti-GST HRP, A450
[6] = target: Diaz-ES-VWFIIINle (diazirine-bearing end-stapled triple-helical peptide of three VWFIIINle strands); experiment: as above
[7] = target: bovine Achilles tendon collagen type I film, 100% EDC/NHS crosslinked (bovine) (UniProt P02453)
[8] = target: Diaz-ES-VWFIIINle (diazirine-bearing end-stapled triple-helical peptide of three VWFIIINle strands)
[9] = target: bovine Achilles tendon collagen type I film, 100% EDC/NHS crosslinked (bovine) (UniProt P02453); experiment: ELISA; 100% EDC/NHS crosslinked collagen films in 96-well plates, without peptide or incubated with peptide at 5 μg/ml, left in the dark (no UV), washed with citrate buffer pH 3 and PBS; VWF-A3-GST at 5 μg/ml in PBS 0.1% BSA, room temperature; anti-GST HRP, A450
[10] = target: Diaz-ES-VWFIIINle (diazirine-bearing end-stapled triple-helical peptide of three VWFIIINle strands); experiment: as above
[11] = target: bovine Achilles tendon collagen type I film, 100% EDC/NHS crosslinked (bovine) (UniProt P02453); experiment: ELISA; 100% EDC/NHS crosslinked collagen films in 96-well plates, without peptide or incubated with peptide at 5 μg/ml, left in the dark (no UV), washed with citrate buffer pH 3 and PBS; DDR2-Fc at 1 μg/ml in PBS 0.1% BSA and 0.05% Tween-20, 2 h, room temperature; anti-Fc HRP, A450
[12] = target: bovine Achilles tendon collagen type I film, 100% EDC/NHS crosslinked (bovine) (UniProt P02453); experiment: ELISA; 100% EDC/NHS crosslinked collagen films in 96-well plates, without peptide or incubated with peptide at 5 μg/ml for 30 min, then UV (365 nm) for 5 min, washed with citrate buffer pH 3 and PBS; DDR2-Fc at 1 μg/ml in PBS 0.1% BSA and 0.05% Tween-20, 2 h, room temperature; anti-Fc HRP, A450
[13] = target: Diaz-ES-VWFIIINle (diazirine-bearing end-stapled triple-helical peptide of three VWFIIINle strands); experiment: as above
[14] = target: bovine Achilles tendon collagen type I film, 100% EDC/NHS crosslinked (bovine) (UniProt P02453); experiment: ELISA; collagen films in 96-well plates, EDC/NHS crosslinked 0% to 100%, blocked with PBS 5% BSA; DDR2-Fc at 1 μg/ml in PBS 0.1% BSA with 0.05% Tween-20, 2 h, room temperature; anti-Fc HRP, TMB, A370 read before addition of sulfuric acid
[15] = target: bovine Achilles tendon collagen type I, non-crosslinked film (bovine) (UniProt P02453); experiment: as above
[16] = target: All other peptide treatments; experiment: ELISA; as a6 and a7, the three other peptide treatments taken together (VWFIIINle with UV, VWFIIINle without UV, Diaz-ES-VWFIIINle without UV) on 100% crosslinked films; DDR2-Fc at 1 μg/ml; A450

Molecule “recombinant GST-tagged human VWF-A3 domain (from UniProt P04275 23-2813) (domain or fragment)” has an A450 [1] of 1.42 absorbance, an A450 [2] of 0.13 absorbance and an A450 [3] of 0.57 absorbance. For the same molecule, the A450 [4] was 0.12 absorbance, the A450 [5] was 0.24 absorbance and the A450 [6] was 1.8 absorbance. It also gave a platelet surface coverage; human whole blood (full-length plasma VWF) perfused at 1000 s^-1 over 100% crosslinked films without peptide [7] of 5.6%, a platelet surface coverage; human whole blood (full-length plasma VWF) perfused at 1000 s^-1 over 100% crosslinked films with Diaz-ES-VWFIIINle after UV [8] of 42.9% and an A450 [9] of 0.26 absorbance. The A450 [10] was 1.25 absorbance.

B1: Recombinant soluble protein comprising the entire DDR2 extracellular region, fused to the Fc-sequence of human IgG2 (Fc fusion)
chain: KAQVNPAICRYPLGMSGGQIPDEDITASSQWSESTAAKYGRLDSEEGDGAWCPEIPVEPDDLKEFLQIDLHTLHFITLVGTQGRHAGGHGIEFAPMYKINYSRDGTRWISWRNRHGKQVLDGNSNPYDIFLKDLEPPIVARFVRFIPVTDHSMNVCMRVELYGCVWLDGLVSYNAPAGQQFVLPGGSIIYLNDSVYDGAVGYSMTEGLGQLTDGVSGLDDFTQTHEYHVWPGYDYVGWRNESATNGYIEIMFEFDRIRNFTTMKVHCNNMFAKGVKIFKEVQCYFRSEASEWEPNAISFPLVLDDVNPSARFVTVPLHHRMASAIKCQYHFADTWMMFSEITFQSDAAMYNNSEALPTSPMAPTTYDPMLKVDDSNTR
Molecule B1 has an A450 [11] of 0.61 absorbance, an A450 [12] of 0.61 absorbance and an A450 [13] of 1.9 absorbance. It also gave an A370 [14] of 0.18 absorbance, an A370 [15] of 0.32 absorbance and an A450 [16] of 1.16 to 1.43 absorbance.
